Laboratory results published in paper PMC5299624 (The Journal of General Physiology, 2017).
Where a chain is given by its changes, count along the chain named. Numbers in names are those of the source. Values belong to the binder of their own block, whether it stands above or below them.

Target: calmodulin (CaM) (UniProt P0DP23 1-149)
Experiment: ITC

Kd: 276 nM
B1: human NaV1.6 C-terminal domain (CTD), amino acids 1769-1926, wild type (domain or fragment)
chain: FSVATEESADPLSEDDFETFYEIWEKFDPDATQFIEYCKLADFADALEHPLRVPKPNTIELIAMDLPMVSGDRIHCLDILFAFTKRVLGDSGELDILRQQMEERFVASNPSKVSYEPITTTLRRKQEEVSAVVLQRAYRGHLARRGFICKKTTSNKLE

Kd: 172 nM
B2: human NaV1.2 CTD (1777-1937) H1853R (domain or fragment)
chain: ENFSVATEESAEPLSEDDFEMFYEVWEKFDPDATQFIEFAKLSDFADALDPPLLIAKPNKVQLIAMDLPMVSGDRIRCLDILFAFTKRVLGESGEMDALRIQMEERFMASNPSKVSYEPITTTLKRKQEEVSAIIIQRAYRRYLLKQKVKKVSSIYKKDKG

Kd: 112 nM
B3: human NaV1.2 CTD (1777-1937) R1918H (domain or fragment)
chain: B2 chain with R77H, R142H
